Test results: PMC10034259

Molecular target: cys-protein G conjugated to a peptide nucleic acid strand (PG-PNA)

With “RBD, Fc (SARS-CoV-2 spike receptor binding domain with Fc) (from UniProt P0DTC2) (Fc fusion)” the stoichiometry N was 2.82 RBD:PG.
